B1: phosphorylated full-length human IRF-3 E388A (natural protein, UniProt Q14653 1-427, looked up)
chain: MGTPKPRILPWLVSQLDLGQLEGVAWVNKSRTRFRIPWKHGLRQDAQQEDFGIFQAWAEATGAYVPGRDKPDLPTWKRNFRSALNRKEGLRLAEDRSKDPHDPHKIYEFVNSGVGDFSQPDTSPDTNGGGSTSDTQEDILDELLGNMVLAPLPDPGPPSLAVAPEPCPQPLRSPSLDNPTPFPNLGPSENPLKRLLVPGEEWEFEVTAFYRGRQVFQQTISCPEGLRLVGSEVGDRTLPGWPVTLPDPGMSLTDRGVMSYVRHVLSCLGGGLALWRAGQWLWAQRLGHCHTYWAVSEELLPNSGHGPDGEVPKDKEGGVFDLGPFIVDLITFTEGSGRSPRYALWFCVGESWPQDQPWTKRLVMVKVVPTCLRALVEMARVGGASSLANTVDLHISNSHPLSLTSDQYKAYLQDLVEGMDFQGPGES
modifications: phosphorylated in vitro by GST-mTBK1; the phosphorylated residues are not listed
B2: phosphorylated full-length human IRF-3 R285A/K313A (natural protein, UniProt Q14653 1-427, looked up)
chain: MGTPKPRILPWLVSQLDLGQLEGVAWVNKSRTRFRIPWKHGLRQDAQQEDFGIFQAWAEATGAYVPGRDKPDLPTWKRNFRSALNRKEGLRLAEDRSKDPHDPHKIYEFVNSGVGDFSQPDTSPDTNGGGSTSDTQEDILDELLGNMVLAPLPDPGPPSLAVAPEPCPQPLRSPSLDNPTPFPNLGPSENPLKRLLVPGEEWEFEVTAFYRGRQVFQQTISCPEGLRLVGSEVGDRTLPGWPVTLPDPGMSLTDRGVMSYVRHVLSCLGGGLALWRAGQWLWAQALGHCHTYWAVSEELLPNSGHGPDGEVPADKEGGVFDLGPFIVDLITFTEGSGRSPRYALWFCVGESWPQDQPWTKRLVMVKVVPTCLRALVEMARVGGASSLENTVDLHISNSHPLSLTSDQYKAYLQDLVEGMDFQGPGES
modifications: phosphorylated in vitro by GST-mTBK1; the phosphorylated residues are not listed
B3: phosphorylated full-length human IRF-3 H290A (natural protein, UniProt Q14653 1-427, looked up)
chain: MGTPKPRILPWLVSQLDLGQLEGVAWVNKSRTRFRIPWKHGLRQDAQQEDFGIFQAWAEATGAYVPGRDKPDLPTWKRNFRSALNRKEGLRLAEDRSKDPHDPHKIYEFVNSGVGDFSQPDTSPDTNGGGSTSDTQEDILDELLGNMVLAPLPDPGPPSLAVAPEPCPQPLRSPSLDNPTPFPNLGPSENPLKRLLVPGEEWEFEVTAFYRGRQVFQQTISCPEGLRLVGSEVGDRTLPGWPVTLPDPGMSLTDRGVMSYVRHVLSCLGGGLALWRAGQWLWAQRLGHCATYWAVSEELLPNSGHGPDGEVPKDKEGGVFDLGPFIVDLITFTEGSGRSPRYALWFCVGESWPQDQPWTKRLVMVKVVPTCLRALVEMARVGGASSLENTVDLHISNSHPLSLTSDQYKAYLQDLVEGMDFQGPGES
modifications: phosphorylated in vitro by GST-mTBK1; the phosphorylated residues are not listed
B4: phosphorylated full-length human IRF-3 H288A (natural protein, UniProt Q14653 1-427, looked up)
chain: MGTPKPRILPWLVSQLDLGQLEGVAWVNKSRTRFRIPWKHGLRQDAQQEDFGIFQAWAEATGAYVPGRDKPDLPTWKRNFRSALNRKEGLRLAEDRSKDPHDPHKIYEFVNSGVGDFSQPDTSPDTNGGGSTSDTQEDILDELLGNMVLAPLPDPGPPSLAVAPEPCPQPLRSPSLDNPTPFPNLGPSENPLKRLLVPGEEWEFEVTAFYRGRQVFQQTISCPEGLRLVGSEVGDRTLPGWPVTLPDPGMSLTDRGVMSYVRHVLSCLGGGLALWRAGQWLWAQRLGACHTYWAVSEELLPNSGHGPDGEVPKDKEGGVFDLGPFIVDLITFTEGSGRSPRYALWFCVGESWPQDQPWTKRLVMVKVVPTCLRALVEMARVGGASSLENTVDLHISNSHPLSLTSDQYKAYLQDLVEGMDFQGPGES
modifications: phosphorylated in vitro by GST-mTBK1; the phosphorylated residues are not listed
B5: phosphorylated full-length human IRF-3 H290A/K313A (natural protein, UniProt Q14653 1-427, looked up)
chain: MGTPKPRILPWLVSQLDLGQLEGVAWVNKSRTRFRIPWKHGLRQDAQQEDFGIFQAWAEATGAYVPGRDKPDLPTWKRNFRSALNRKEGLRLAEDRSKDPHDPHKIYEFVNSGVGDFSQPDTSPDTNGGGSTSDTQEDILDELLGNMVLAPLPDPGPPSLAVAPEPCPQPLRSPSLDNPTPFPNLGPSENPLKRLLVPGEEWEFEVTAFYRGRQVFQQTISCPEGLRLVGSEVGDRTLPGWPVTLPDPGMSLTDRGVMSYVRHVLSCLGGGLALWRAGQWLWAQRLGHCATYWAVSEELLPNSGHGPDGEVPADKEGGVFDLGPFIVDLITFTEGSGRSPRYALWFCVGESWPQDQPWTKRLVMVKVVPTCLRALVEMARVGGASSLENTVDLHISNSHPLSLTSDQYKAYLQDLVEGMDFQGPGES
modifications: phosphorylated in vitro by GST-mTBK1; the phosphorylated residues are not listed
B6: phosphorylated full-length human IRF-3 K313A (natural protein, UniProt Q14653 1-427, looked up)
chain: MGTPKPRILPWLVSQLDLGQLEGVAWVNKSRTRFRIPWKHGLRQDAQQEDFGIFQAWAEATGAYVPGRDKPDLPTWKRNFRSALNRKEGLRLAEDRSKDPHDPHKIYEFVNSGVGDFSQPDTSPDTNGGGSTSDTQEDILDELLGNMVLAPLPDPGPPSLAVAPEPCPQPLRSPSLDNPTPFPNLGPSENPLKRLLVPGEEWEFEVTAFYRGRQVFQQTISCPEGLRLVGSEVGDRTLPGWPVTLPDPGMSLTDRGVMSYVRHVLSCLGGGLALWRAGQWLWAQRLGHCHTYWAVSEELLPNSGHGPDGEVPADKEGGVFDLGPFIVDLITFTEGSGRSPRYALWFCVGESWPQDQPWTKRLVMVKVVPTCLRALVEMARVGGASSLENTVDLHISNSHPLSLTSDQYKAYLQDLVEGMDFQGPGES
modifications: phosphorylated in vitro by GST-mTBK1; the phosphorylated residues are not listed
B7: phosphorylated full-length human IRF-3 H288A/H290A/K313A (natural protein, UniProt Q14653 1-427, looked up)
chain: MGTPKPRILPWLVSQLDLGQLEGVAWVNKSRTRFRIPWKHGLRQDAQQEDFGIFQAWAEATGAYVPGRDKPDLPTWKRNFRSALNRKEGLRLAEDRSKDPHDPHKIYEFVNSGVGDFSQPDTSPDTNGGGSTSDTQEDILDELLGNMVLAPLPDPGPPSLAVAPEPCPQPLRSPSLDNPTPFPNLGPSENPLKRLLVPGEEWEFEVTAFYRGRQVFQQTISCPEGLRLVGSEVGDRTLPGWPVTLPDPGMSLTDRGVMSYVRHVLSCLGGGLALWRAGQWLWAQRLGACATYWAVSEELLPNSGHGPDGEVPADKEGGVFDLGPFIVDLITFTEGSGRSPRYALWFCVGESWPQDQPWTKRLVMVKVVPTCLRALVEMARVGGASSLENTVDLHISNSHPLSLTSDQYKAYLQDLVEGMDFQGPGES
modifications: phosphorylated in vitro by GST-mTBK1; the phosphorylated residues are not listed
B8: phosphorylated full-length human IRF-3 R285A (natural protein, UniProt Q14653 1-427, looked up)
chain: MGTPKPRILPWLVSQLDLGQLEGVAWVNKSRTRFRIPWKHGLRQDAQQEDFGIFQAWAEATGAYVPGRDKPDLPTWKRNFRSALNRKEGLRLAEDRSKDPHDPHKIYEFVNSGVGDFSQPDTSPDTNGGGSTSDTQEDILDELLGNMVLAPLPDPGPPSLAVAPEPCPQPLRSPSLDNPTPFPNLGPSENPLKRLLVPGEEWEFEVTAFYRGRQVFQQTISCPEGLRLVGSEVGDRTLPGWPVTLPDPGMSLTDRGVMSYVRHVLSCLGGGLALWRAGQWLWAQALGHCHTYWAVSEELLPNSGHGPDGEVPKDKEGGVFDLGPFIVDLITFTEGSGRSPRYALWFCVGESWPQDQPWTKRLVMVKVVPTCLRALVEMARVGGASSLENTVDLHISNSHPLSLTSDQYKAYLQDLVEGMDFQGPGES
modifications: phosphorylated in vitro by GST-mTBK1; the phosphorylated residues are not listed
B9: phosphorylated full-length human IRF-3 S339A (natural protein, UniProt Q14653 1-427, looked up)
chain: MGTPKPRILPWLVSQLDLGQLEGVAWVNKSRTRFRIPWKHGLRQDAQQEDFGIFQAWAEATGAYVPGRDKPDLPTWKRNFRSALNRKEGLRLAEDRSKDPHDPHKIYEFVNSGVGDFSQPDTSPDTNGGGSTSDTQEDILDELLGNMVLAPLPDPGPPSLAVAPEPCPQPLRSPSLDNPTPFPNLGPSENPLKRLLVPGEEWEFEVTAFYRGRQVFQQTISCPEGLRLVGSEVGDRTLPGWPVTLPDPGMSLTDRGVMSYVRHVLSCLGGGLALWRAGQWLWAQRLGHCHTYWAVSEELLPNSGHGPDGEVPKDKEGGVFDLGPFIVDLITFTEGSGRAPRYALWFCVGESWPQDQPWTKRLVMVKVVPTCLRALVEMARVGGASSLENTVDLHISNSHPLSLTSDQYKAYLQDLVEGMDFQGPGES
modifications: phosphorylated in vitro by GST-mTBK1; the phosphorylated residues are not listed
B10: phosphorylated full-length human IRF-3 S396A (natural protein, UniProt Q14653 1-427, looked up)
chain: MGTPKPRILPWLVSQLDLGQLEGVAWVNKSRTRFRIPWKHGLRQDAQQEDFGIFQAWAEATGAYVPGRDKPDLPTWKRNFRSALNRKEGLRLAEDRSKDPHDPHKIYEFVNSGVGDFSQPDTSPDTNGGGSTSDTQEDILDELLGNMVLAPLPDPGPPSLAVAPEPCPQPLRSPSLDNPTPFPNLGPSENPLKRLLVPGEEWEFEVTAFYRGRQVFQQTISCPEGLRLVGSEVGDRTLPGWPVTLPDPGMSLTDRGVMSYVRHVLSCLGGGLALWRAGQWLWAQRLGHCHTYWAVSEELLPNSGHGPDGEVPKDKEGGVFDLGPFIVDLITFTEGSGRSPRYALWFCVGESWPQDQPWTKRLVMVKVVPTCLRALVEMARVGGASSLENTVDLHIANSHPLSLTSDQYKAYLQDLVEGMDFQGPGES
modifications: phosphorylated in vitro by GST-mTBK1; the phosphorylated residues are not listed

Target: the molecule itself
Assay: SEC

Does B1 bind?
Result: binds

Does B2 bind?
Result: binds

Does B3 bind?
Result: binds

Does B4 bind?
Result: binds

Does B5 bind?
Result: binds

Does B6 bind?
Result: binds

Does B7 bind?
Result: binds

Does B8 bind?
Result: binds

Does B9 bind?
Result: binds

Target: the molecule itself
Assay: native gel or EMSA

Does B10 bind?
Result: binds
